Consider six molecules from PMC12748787 (Communications Biology, 2025).

The chains are these.
B1: Trx-CaV1.2 JBM (domain or fragment)
chain: not shown
B2: CaV1.2 JBM (as used in SEC and SEC-MALS) (domain or fragment)
chain: not shown

One assay has as its target T1, MBP-Mus_JPH3 NT WT (mouse, UniProt Q9ET77 1-446).
T1 sequence (looked up): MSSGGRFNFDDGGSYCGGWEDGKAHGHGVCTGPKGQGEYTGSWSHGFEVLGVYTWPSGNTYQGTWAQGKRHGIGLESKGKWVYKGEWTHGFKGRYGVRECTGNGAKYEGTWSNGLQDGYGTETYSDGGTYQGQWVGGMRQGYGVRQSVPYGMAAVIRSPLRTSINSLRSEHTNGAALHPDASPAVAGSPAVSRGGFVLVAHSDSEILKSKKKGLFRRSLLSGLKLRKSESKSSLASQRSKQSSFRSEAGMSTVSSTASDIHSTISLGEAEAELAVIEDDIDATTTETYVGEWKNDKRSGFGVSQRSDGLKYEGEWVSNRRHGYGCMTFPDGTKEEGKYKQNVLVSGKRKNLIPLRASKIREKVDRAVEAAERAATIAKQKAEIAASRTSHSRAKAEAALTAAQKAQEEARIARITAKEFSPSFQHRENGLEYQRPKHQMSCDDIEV
As to the kind of experiment: ITC.

The target of assay [1] is T2, MBP-JPH2 NT (mouse, wild type) (mouse, UniProt Q9ET78 1-440).
T2 sequence (looked up): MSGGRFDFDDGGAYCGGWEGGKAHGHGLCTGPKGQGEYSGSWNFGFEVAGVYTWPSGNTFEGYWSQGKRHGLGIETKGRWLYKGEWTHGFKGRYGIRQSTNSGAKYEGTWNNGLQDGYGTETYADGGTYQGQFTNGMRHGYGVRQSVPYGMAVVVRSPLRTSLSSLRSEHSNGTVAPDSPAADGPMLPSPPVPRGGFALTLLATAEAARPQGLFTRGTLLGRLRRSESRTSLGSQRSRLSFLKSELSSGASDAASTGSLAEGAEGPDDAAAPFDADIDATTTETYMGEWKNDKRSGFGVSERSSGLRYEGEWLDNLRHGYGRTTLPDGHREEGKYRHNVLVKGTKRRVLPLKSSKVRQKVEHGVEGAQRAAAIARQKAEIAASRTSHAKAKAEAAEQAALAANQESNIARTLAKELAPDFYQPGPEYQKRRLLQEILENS
Put plainly: ITC.

The next assay has as its target T3, MBP-JPH2 MORN-Helix (mouse, UniProt Q9ET78 1-440, Δ176-273).
T3 sequence (looked up): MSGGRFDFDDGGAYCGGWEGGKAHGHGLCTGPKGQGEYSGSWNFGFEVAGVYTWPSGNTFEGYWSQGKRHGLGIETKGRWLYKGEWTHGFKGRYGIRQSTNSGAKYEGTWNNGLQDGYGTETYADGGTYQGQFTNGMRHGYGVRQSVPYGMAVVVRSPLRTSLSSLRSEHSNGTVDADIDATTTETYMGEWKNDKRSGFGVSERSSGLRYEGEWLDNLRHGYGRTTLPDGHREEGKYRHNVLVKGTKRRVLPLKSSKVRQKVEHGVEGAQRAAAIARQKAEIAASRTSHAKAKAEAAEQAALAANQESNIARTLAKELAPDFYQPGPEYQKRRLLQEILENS
As to the kind of experiment: ITC. On the technique in general: Isothermal titration calorimetry measures the heat released or taken up as one component is titrated into another.

Another assay concerns the target T4, MBP-Mus_JPH1 NT WT (mouse, UniProt Q9ET80 1-436).
T4 sequence (looked up): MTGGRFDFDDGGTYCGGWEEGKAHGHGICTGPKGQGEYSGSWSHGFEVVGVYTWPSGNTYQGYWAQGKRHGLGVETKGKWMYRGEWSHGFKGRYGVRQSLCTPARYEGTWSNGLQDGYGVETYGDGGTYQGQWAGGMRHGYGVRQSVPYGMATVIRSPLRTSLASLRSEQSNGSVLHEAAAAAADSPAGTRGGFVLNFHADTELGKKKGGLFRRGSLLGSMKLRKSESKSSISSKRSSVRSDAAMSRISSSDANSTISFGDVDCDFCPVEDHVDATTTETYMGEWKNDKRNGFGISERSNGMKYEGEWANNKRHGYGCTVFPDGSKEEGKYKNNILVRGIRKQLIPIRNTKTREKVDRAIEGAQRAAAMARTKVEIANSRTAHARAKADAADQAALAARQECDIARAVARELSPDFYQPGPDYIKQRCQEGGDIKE
Put plainly: ITC.

Assay [2] has as its target T5, JPH2 MORN-Helix (as used in SEC-MALS) (mouse, UniProt Q9ET78 1-440, Δ176-273).
T5 sequence (looked up): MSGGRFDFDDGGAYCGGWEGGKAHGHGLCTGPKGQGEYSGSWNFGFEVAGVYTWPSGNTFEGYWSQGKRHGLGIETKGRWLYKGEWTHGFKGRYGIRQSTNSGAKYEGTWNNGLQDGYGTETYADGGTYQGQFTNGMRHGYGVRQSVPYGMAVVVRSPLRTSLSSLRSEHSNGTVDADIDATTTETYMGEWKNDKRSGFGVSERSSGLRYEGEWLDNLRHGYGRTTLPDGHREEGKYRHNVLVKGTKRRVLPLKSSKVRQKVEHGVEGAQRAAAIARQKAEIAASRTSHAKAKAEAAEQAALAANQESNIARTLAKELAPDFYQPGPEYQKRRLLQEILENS
As to the kind of experiment: SEC-MALS.

For the assay “Trx-CaV1.2 JBM”, the target named is B1. As to the kind of experiment: ITC.
For assay [3], the target named is B2. Put plainly: SEC-MALS.

Sequence of Trx-CaV1.2 JBM (Q01815 1647-1777): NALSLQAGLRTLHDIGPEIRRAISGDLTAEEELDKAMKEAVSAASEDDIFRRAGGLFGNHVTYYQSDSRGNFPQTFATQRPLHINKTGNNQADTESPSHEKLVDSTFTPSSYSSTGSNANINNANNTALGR

In general, Kd refers to the equilibrium constant for the complex coming apart. The low end stands for a tighter complex, the high end for a looser complex. In the case of B1, the dissociation constant (Kd) was 5.82 ± 0.36 µM with MBP-Mus_JPH3 NT WT, approximately 6.04 µM in assay [1] and 5.54 ± 0.71 µM with MBP-Mus_JPH1 NT WT. The binding result in the assay with MBP-JPH2 MORN-Helix is recorded as “binds”.

As to B2, the binding result in assay [2] is recorded as “binds”.

B3: JPH2 NT S165I (domain or fragment, mouse, UniProt Q9ET78 1-440, looked up)
chain: MSGGRFDFDDGGAYCGGWEGGKAHGHGLCTGPKGQGEYSGSWNFGFEVAGVYTWPSGNTFEGYWSQGKRHGLGIETKGRWLYKGEWTHGFKGRYGIRQSTNSGAKYEGTWNNGLQDGYGTETYADGGTYQGQFTNGMRHGYGVRQSVPYGMAVVVRSPLRTSLSILRSEHSNGTVAPDSPAADGPMLPSPPVPRGGFALTLLATAEAARPQGLFTRGTLLGRLRRSESRTSLGSQRSRLSFLKSELSSGASDAASTGSLAEGAEGPDDAAAPFDADIDATTTETYMGEWKNDKRSGFGVSERSSGLRYEGEWLDNLRHGYGRTTLPDGHREEGKYRHNVLVKGTKRRVLPLKSSKVRQKVEHGVEGAQRAAAIARQKAEIAASRTSHAKAKAEAAEQAALAANQESNIARTLAKELAPDFYQPGPEYQKRRLLQEILENS
For B3, in the assay with Trx-CaV1.2 JBM, the “fold decrease in affinity against the wild type” value was determined as 2 fold.

B4: JPH2 NT (mouse, wild type, as used in SEC-MALS) (domain or fragment, UniProt Q9ET78 1-440, looked up)
chain: MSGGRFDFDDGGAYCGGWEGGKAHGHGLCTGPKGQGEYSGSWNFGFEVAGVYTWPSGNTFEGYWSQGKRHGLGIETKGRWLYKGEWTHGFKGRYGIRQSTNSGAKYEGTWNNGLQDGYGTETYADGGTYQGQFTNGMRHGYGVRQSVPYGMAVVVRSPLRTSLSSLRSEHSNGTVAPDSPAADGPMLPSPPVPRGGFALTLLATAEAARPQGLFTRGTLLGRLRRSESRTSLGSQRSRLSFLKSELSSGASDAASTGSLAEGAEGPDDAAAPFDADIDATTTETYMGEWKNDKRSGFGVSERSSGLRYEGEWLDNLRHGYGRTTLPDGHREEGKYRHNVLVKGTKRRVLPLKSSKVRQKVEHGVEGAQRAAAIARQKAEIAASRTSHAKAKAEAAEQAALAANQESNIARTLAKELAPDFYQPGPEYQKRRLLQEILENS
In general, stoichiometry N refers to the number of molecules, sites or subunits per partner or assembly. For B4, in assay [3], the “stoichiometry N” value is 1.

B5: MBP-JPH2 NT S165Y (domain or fragment, mouse, UniProt Q9ET78 1-440, looked up)
chain: MSGGRFDFDDGGAYCGGWEGGKAHGHGLCTGPKGQGEYSGSWNFGFEVAGVYTWPSGNTFEGYWSQGKRHGLGIETKGRWLYKGEWTHGFKGRYGIRQSTNSGAKYEGTWNNGLQDGYGTETYADGGTYQGQFTNGMRHGYGVRQSVPYGMAVVVRSPLRTSLSYLRSEHSNGTVAPDSPAADGPMLPSPPVPRGGFALTLLATAEAARPQGLFTRGTLLGRLRRSESRTSLGSQRSRLSFLKSELSSGASDAASTGSLAEGAEGPDDAAAPFDADIDATTTETYMGEWKNDKRSGFGVSERSSGLRYEGEWLDNLRHGYGRTTLPDGHREEGKYRHNVLVKGTKRRVLPLKSSKVRQKVEHGVEGAQRAAAIARQKAEIAASRTSHAKAKAEAAEQAALAANQESNIARTLAKELAPDFYQPGPEYQKRRLLQEILENS
As to B5, the “fold weakening of the binding against the wild type” value with Trx-CaV1.2 JBM is approximately 3 fold.

B6: JPH2 NT S165L (domain or fragment, mouse, UniProt Q9ET78 1-440, looked up)
chain: MSGGRFDFDDGGAYCGGWEGGKAHGHGLCTGPKGQGEYSGSWNFGFEVAGVYTWPSGNTFEGYWSQGKRHGLGIETKGRWLYKGEWTHGFKGRYGIRQSTNSGAKYEGTWNNGLQDGYGTETYADGGTYQGQFTNGMRHGYGVRQSVPYGMAVVVRSPLRTSLSLLRSEHSNGTVAPDSPAADGPMLPSPPVPRGGFALTLLATAEAARPQGLFTRGTLLGRLRRSESRTSLGSQRSRLSFLKSELSSGASDAASTGSLAEGAEGPDDAAAPFDADIDATTTETYMGEWKNDKRSGFGVSERSSGLRYEGEWLDNLRHGYGRTTLPDGHREEGKYRHNVLVKGTKRRVLPLKSSKVRQKVEHGVEGAQRAAAIARQKAEIAASRTSHAKAKAEAAEQAALAANQESNIARTLAKELAPDFYQPGPEYQKRRLLQEILENS
Consider B6, for which the “fold decrease in affinity against the wild type” value with Trx-CaV1.2 JBM worked out at 2 fold.
